US20260042854A1 (SCIWIND BIOSCIENCES USA, published 2026)

B1: P16289 (antibody, human IgG4 S228P, kappa, V domains shown)
VH: EVQLVETGGGVVQPGRSLRLSCAASGFTFSSYAMHWVRQAPGKGLEWVAVISYDGSNKYYADSVKGRFTISRDNSKNTLYLQMNSLRAEDTAVYYCAREGYSSSWTYYYYYYMDVWGKGTMVTVSS
VL: DIQLTQSPSSLSASVGDRVTITCRASQGVSRALAWYQQKPGKAPKLLIYDASYLEDGVPSRFSGSGSGTDFTLTISSLQPEDFATYYCQQSYSTPYTFGQGTKLEIKR
notes: Fully human Fab from a phage library, linked to IgG4 (S228P) constant regions; also called anti-GLP-1R antibody P16289
B2: P16288 (antibody, human IgG4 S228P, kappa, V domains shown)
VH: QVQLVQSGAEMKKPGASVKVSCKTSGYRFSTYVISWVRQTPGQGLEWMGWISPYTGDIDYAQKFQGRVTITADESTSTAYMELSRLRSDDTAVYYCARERDGYNFPGMDVWGQGTTVTVSS
VL: DIQLTQSPSFLSASVGDRVTITCRASQGISSYLAWYQQKPGRAPKLLIYSASTLQRGVPSRFSGSGSGTDFTLTISSLQPEDYATYYCQQADSFPPSFGPGTKVDIKR
notes: Fully human Fab from a phage library, linked to IgG4 (S228P) constant regions; also called anti-GLP-1R antibody P16288

What was measured:
[1] = target: T1, hGLP-1R on the cell membrane (HEK293 cells overexpressing hGLP-1R) (human, UniProt P43220 24-463); experiment: cell-based or functional assay
[2] = target: T1, hGLP-1R on the cell membrane (HEK293 …); experiment: cell-based or functional assay; remark: listed apart in the source
[3] = target: monkey GLP-1R (JN033215.1) on HEK293 cells (monkey); experiment: cell-based or functional assay
[4] = target: T2, mouse GLP-1R (NM_021332.2) on HEK293 cells (mouse, UniProt O35659 22-463); experiment: cell-based or functional assay
T2 sequence (looked up): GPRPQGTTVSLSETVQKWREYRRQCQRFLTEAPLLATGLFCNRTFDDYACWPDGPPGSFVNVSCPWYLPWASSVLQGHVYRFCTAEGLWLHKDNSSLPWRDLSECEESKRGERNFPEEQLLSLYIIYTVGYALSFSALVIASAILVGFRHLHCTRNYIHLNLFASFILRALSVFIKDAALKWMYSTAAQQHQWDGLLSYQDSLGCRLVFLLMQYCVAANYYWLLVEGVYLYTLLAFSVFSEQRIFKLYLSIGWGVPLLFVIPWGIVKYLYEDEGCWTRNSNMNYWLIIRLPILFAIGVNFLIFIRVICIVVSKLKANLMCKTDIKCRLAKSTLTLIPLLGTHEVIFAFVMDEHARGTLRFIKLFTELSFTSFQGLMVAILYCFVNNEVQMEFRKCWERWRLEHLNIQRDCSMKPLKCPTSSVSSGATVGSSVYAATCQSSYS

[5] = target: T1, hGLP-1R on the cell membrane (HEK293 …); experiment: flow cytometry on HEK293 cells overexpressing hGLP-1R, PE anti-human IgG Fc
[6] = target: T3, extracellular domain of hGLP-1R (NP_002053.3, aa 24-145), recombinant protein (human, UniProt P43220 24-145); experiment: ELISA, plate coated with hGLP-1R extracellular domain, anti-human Fc-HRP detection
T3 construct: range 24-145; Expressed as a recombinant protein; also called hGLP-1R recombinant protein

Binder	IC50, inhibition of GLP-1 (2.5 ng/mL) activity in hGLP-1R-CRE-Luciferase-HEK293 reporter gene assay [1] [nM]	IC50 (nM), inhibition of GLP-1 (1 ng/ml) induced cAMP (HTRF) in HEK293 cells transfected with human GLP-1R [2] [nM]	IC50 (nM), inhibition of GLP-1 (1 ng/ml) induced cAMP (HTRF) in HEK293 cells transfected with monkey GLP-1R [3] [nM]	IC50 (nM), inhibition of GLP-1 (6 ng/ml) induced cAMP (HTRF) in HEK293 cells transfected with mouse GLP-1R [4] [nM]	EC50 [5] [nM]	EC50 [6] [nM]
B1	> 2820	> 5500	> 5500	> 5500	> 137	0.0048
B2	13.4	211	162		9.9	0.013
